Measured values published in the supplement of paper PMC5998384.

Legend:
HeLa Kyoto [1] = test: melting temperature (median over replicates), in situ; higher = more thermally stable
HeLa Kyoto [2] = test: solubility in G1/S (NP-40 vs SDS abundance) (log2 ratio); higher = more soluble; conditions: cell cycle stage: G1/S
HeLa Kyoto [3] = test: solubility change mitosis vs G1/S (difference of NP-40 vs SDS log2 ratios) (log2 ratio difference); higher = more soluble in mitosis
HeLa Kyoto [4] = test: thermal stability score vs G1/S (z-score of summed log2 fold changes over temperatures); higher = more thermally stable than in G1/S
[5] = cell cycle stage: early G1 (4.5 h after nocodazole release)
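For melting temperature (median over replicates), in situ in this document: HeLa Kyoto cells synchronized by double thymidine or nocodazole block, proteins quantified by TMT10plex mass spectrometry, three independent biological replicates.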
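For solubility change mitosis vs G1/S (difference of NP-40 vs SDS log2 ratios) in this document: synchronized HeLa Kyoto cells (double thymidine block for G1/S, nocodazole release for mitosis), protein amounts in NP-40 versus SDS lysates quantified by mass spectrometry, three biological replicates.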
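For solubility in G1/S (NP-40 vs SDS abundance) in this document: HeLa Kyoto cells arrested at G1/S by double thymidine block, proteins quantified by TMT10plex mass spectrometry in mild NP-40 versus SDS extracts, three biological replicates.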
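For thermal stability score vs G1/S (z-score of summed log2 fold changes over temperatures) in this document: synchronized HeLa Kyoto cells, proteins quantified by TMT10plex mass spectrometry, three biological replicates, mitosis taken 0.5 h after nocodazole release, G1/S directly after double thymidine block.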

Chain of KCTD3 (chain, as listed by the source): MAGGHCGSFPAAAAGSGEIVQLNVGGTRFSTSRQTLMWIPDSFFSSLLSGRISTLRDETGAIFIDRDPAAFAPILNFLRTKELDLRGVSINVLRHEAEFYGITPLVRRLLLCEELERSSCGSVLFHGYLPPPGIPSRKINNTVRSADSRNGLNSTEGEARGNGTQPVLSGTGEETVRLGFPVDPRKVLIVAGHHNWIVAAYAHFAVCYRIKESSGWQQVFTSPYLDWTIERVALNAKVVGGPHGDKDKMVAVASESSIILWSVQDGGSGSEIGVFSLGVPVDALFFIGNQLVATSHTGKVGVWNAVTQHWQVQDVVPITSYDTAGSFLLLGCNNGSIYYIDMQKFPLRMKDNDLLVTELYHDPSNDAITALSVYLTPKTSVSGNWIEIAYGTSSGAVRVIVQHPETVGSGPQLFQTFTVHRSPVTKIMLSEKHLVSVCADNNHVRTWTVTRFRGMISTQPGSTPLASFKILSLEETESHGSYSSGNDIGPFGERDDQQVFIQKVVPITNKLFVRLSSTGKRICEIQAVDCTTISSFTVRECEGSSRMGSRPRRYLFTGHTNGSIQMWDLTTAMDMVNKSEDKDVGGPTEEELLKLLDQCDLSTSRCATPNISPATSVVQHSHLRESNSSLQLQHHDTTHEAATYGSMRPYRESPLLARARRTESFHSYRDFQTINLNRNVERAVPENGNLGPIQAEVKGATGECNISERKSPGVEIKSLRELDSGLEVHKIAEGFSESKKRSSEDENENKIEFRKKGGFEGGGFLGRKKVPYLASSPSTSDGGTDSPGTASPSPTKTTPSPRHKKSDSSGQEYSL

Substance	melting temperature (HeLa Kyoto [1]; cell cycle stage: G1/S)	melting temperature (HeLa Kyoto [1]; cell cycle stage: mitosis)	solubility in G1/S (log2) (HeLa Kyoto [2])	solubility change mitosis (log2) (HeLa Kyoto [3])	thermal stability score (HeLa Kyoto [4]; [5])	thermal stability score (HeLa Kyoto [4]; cell cycle stage: mitosis)
MPGVKLTTQAYCKMVLHGAKYPHCAVNGLLVAEKQKPRKEHLPLGGPGAHHTLFVDCIPLFHGTLALAPMLEVALTLIDSWCKDHSYVIAGYYQANERVKDASPNQVAEKVASRIAEGFSDTALIMVDNTKFTMDCVAPTIHVYEHHENRWRCRDPHHDYCEDWPEAQRISASLLDSRSYETLVDFDNHLDDIRNDWTNPEINKAVLHLC [EMC8]	53.1 °C	53.3 °C	0.269	-0.272	-1.83	-2.67
MLETLRERLLSVQQDFTSGLKTLSDKSREAKVKSKPRTVPFLPKYSAGLELLSRYEDTWAALHRRAKDCASAGELVDSEVVMLSAHWEKKKTSLVELQEQLQQLPALIADLESMTANLTHLEASFEEVENNLLHLEDLCGQCELERCKHMQSQQLENYKKNKRKELETFKAELDAEHAQKVLEMEHTQQMKLKERQKFFEEAFQQDMEQYLSTGYLQIAERREPIGSMSSMEVNVDMLEQMDLMDISDQEALDVFLNSGGEENTVLSPALGPESSTCQNEITLQVPNPSELRAKPPSSSSTCTDSATRDISEGGESPVVQSDEEEVQVDTALATSHTDREATPDGGEDSDS [DTNBP1]	54.1 °C		0.267	-0.387	-0.457	-0.463
MAPPVAERGLKSVVWQKIKATVFDDCKKEGEWKIMLLDEFTTKLLASCCKMTDLLEEGITVVENIYKNREPVRQMKALYFITPTSKSVDCFLHDFASKSENKYKAAYIYFTDFCPDNLFNKIKASCSKSIRRCKEINISFIPHESQVYTLDVPDAFYYCYSPDPGNAKGKDAIMETMADQIVTVCATLDENPGVRYKSKPLDNASKLAQLVEKKLEDYYKIDEKSLIKGKTHSQLLIIDRGFDPVSTVLHELTFQAMAYDLLPIENDTYKYKTDGKEKEAILEEEDDLWVRIRHRHIAVVLEEIPKLMKEISSTKKATEGKTSLSALTQLMKKMPHFRKQITKQVVHLNLAEDCMNKFKLNIEKLCKTEQDLALGTDAEGQKVKDSMRVLLPVLLNKNHDNCDKIRAILLYIFSINGTTEENLDRLIQNVKIENESDMIRNWSYLGVPIVPQSQQGKPLRKDRSAEETFQLSRWTPFIKDIMEDAIDNRLDSKEWPYCSQCPAVWNGSGAVSARQKPRANYLEDRKNGSKLIVFVIGGITYSEVRCAYEVSQAHKSCEVIIGSTHVLTPKKLLDDIKMLNKPKDKVSLIKDE [STXBP3]	49 °C	49 °C	-0.0906	-0.0474	-0.14	0.708
MATHGQTCARPMCIPPSYADLGKAARDIFNKGFGFGLVKLDVKTKSCSGVEFSTSGSSNTDTGKVTGTLETKYKWCEYGLTFTEKWNTDNTLGTEIAIEDQICQGLKLTFDTTFSPNTGKKSGKIKSSYKRECINLGCDVDFDFAGPAIHGSAVFGYEGWLAGYQMTFDSAKSKLTRNNFAVGYRTGDFQLHTNVNDGTEFGGSIYQKVCEDLDTSVNLAWTSGTNCTRFGIAAKYQLDPTASISAKVNNSSLIGVGYTQTLRPGVKLTLSALVDGKSINAGGHKVGLALELEA [VDAC2]	59.9 °C	60.3 °C	-0.125	-0.0952	-1.16	-4.22
MFKNTFQSGFLSILYSIGSKPLQIWDKKVRNGHIKRITDNDIQSLVLEIEGTNVSTTYITCPADPKKTLGIKLPFLVMIIKNLKKYFTFEVQVLDDKNVRRRFRASNYQSTTRVKPFICTMPMRLDDGWNQIQFNLLDFTRRAYGTNYIETLRVQIHANCRIRRVYFSDRLYSEDELPAEFKLYLPVQNKAKQ [CFAP20]	50.9 °C	51 °C	-0.154	-0.00426	-0.133	0.199
MESAGLEQLLRELLLPDTERIRRATEQLQIVLRAPAALPALCDLLASAADPQIRQFAAVLTRRRLNTRWRRLAAEQRESLKSLILTALQRETEHCVSLSLAQLSATIFRKEGLEAWPQLLQLLQHSTHSPHSPEREMGLLLLSVVVTSRPEAFQPHHRELLRLLNETLGEVGSPGLLFYSLRTLTTMAPYLSTEDVPLARMLVPKLIMAMQTLIPIDEAKACEALEALDELLESEVPVITPYLSEVLTFCLEVARNVALGNAIRIRILCCLTFLVKVKSKALLKNRLLPPLLHTLFPIVAAEPPPGQLDPEDQDSEEEELEIELMGETPKHFAVQVVDMLALHLPPEKLCPQLMPMLEEALRSESPYQRKAGLLVLAVLSDGAGDHIRQRLLPPLLQIVCKGLEDPSQVVRNAALFALGQFSENLQPHISSYSREVMPLLLAYLKSVPLGHTHHLAKACYALENFVENLGPKVQPYLPELMECMLQLLRNPSSPRAKELAVSALGAIATAAQASLLPYFPAIMEHLREFLLTGREDLQPVQIQSLETLGVLARAVGEPMRPLAEECCQLGLGLCDQVDDPDLRRCTYSLFAALSGLMGEGLAPHLEQITTLMLLSLRSTEGIVPQYDGSSSFLLFDDESDGEEEEELMDEDVEEEDDSEISGYSVENAFFDEKEDTCAAVGEISVNTSVAFLPYMESVFEEVFKLLECPHLNVRKAAHEALGQFCCALHKACQSCPSEPNTAALQAALARVVPSYMQAVNRERERQVVMAVLEALTGVLRSCGTLTLKPPGRLAELCGVLKAVLQRKTACQDTDEEEEEEDDDQAEYDAMLLEHAGEAIPALAAAAGGDSFAPFFAGFLPLLVCKTKQGCTVAEKSFAVGTLAETIQGLGAASAQFVSRLLPVLLSTAQEADPEVRSNAIFGMGVLAEHGGHPAQEHFPKLLGLLFPLLARERHDRVRDNICGALARLLMASPTRKPEPQVLAALLHALPLKEDLEEWVTIGRLFSFLYQSSPDQVIDVAPELLRICSLILADNKIPPDTKAALLLLLTFLAKQHTDSFQAALGSLPVDKAQELQAVLGLS [IPO4]	49.6 °C	49.9 °C	-0.204	-0.104	0.678	2.82
KCTD3	57.6 °C	56.7 °C	-0.0736	0.0231	-2.92	-4.02
MEPEEERIRYSQRLRGTMRRRYEDDGISDDEIEGKRTFDLEEKLHTNKYNANFVTFMEGKDFNVEYIQRGGLRDPLIFKNSDGLGIKMPDPDFTVNDVKMCVGSRRMVDVMDVNTQKGIEMTMAQWTRYYETPEEEREKLYNVISLEFSHTRLENMVQRPSTVDFIDWVDNMWPRHLKESQTESTNAILEMQYPKVQKYCLMSVRGCYTDFHVDFGGTSVWYHIHQGGKVFWLIPPTAHNLELYENWLLSGKQGDIFLGDRVSDCQRIELKQGYTFVIPSGWIHAVYTPTDTLVFGGNFLHSFNIPMQLKIYNIEDRTRVPNKFRYPFYYEMCWYVLERYVYCITNRSHLTKEFQKESLSMDLELNGLESGNGDEEAVDREPRRLSSRRSVLTSPVANGVNLDYDGLGKTCRSLPSLKKTLAGDSSSDCSRGSHNGQVWDPQCAPRKDRQVHLTHFELEGLRCLVDKLESLPLHKKCVPTGIEDEDALIADVKILLEELANSDPKLALTGVPIVQWPKRDKLKFPTRPKVRVPTIPITKPHTMKPAPRLTPVRPAAASPIVSGARRRRVRCRKCKACVQGECGVCHYCRDMKKFGGPGRMKQSCVLRQCLAPRLPHSVTCSLCGEVDQNEETQDFEKKLMECCICNEIVHPGCLQMDGEGLLNEELPNCWECPKCYQEDSSEKAQKRKMEESDEEAVQAKVLRPLRSCDEPLTPPPHSPTSMLQLIHDPVSPRGMVTRSSPGAGPSDHHSASRDERFKRRQLLRLQATERTMVREKENNPSGKKELSEVEKAKIRGSYLTVTLQRPTKELHGTSIVPKLQAITASSANLRHSPRVLVQHCPARTPQRGDEEGLGGEEEEEEEEEEEDDSAEEGGAARLNGRGSWAQDGDESWMQREVWMSVFRYLSRRELCECMRVCKTWYKWCCDKRLWTKIDLSRCKAIVPQALSGIIKRQPVSLDLSWTNISKKQLTWLVNRLPGLKDLLLAGCSWSAVSALSTSSCPLLRTLDLRWAVGIKDPQIRDLLTPPADKPGQDNRSKLRNMTDFRLAGLDITDATLRLIIRHMPLLSRLDLSHCSHLTDQSSNLLTAVGSSTRYSLTELNMAGCNKLTDQTLIYLRRIANVTLIDLRGCKQITRKACEHFISDLSINSLYCLSDEKLIQKIS [KDM2A]	52.3 °C	50.5 °C	-1.07	0.642	0.0512	-0.325
MPAERPAGSGGSEAPAMVEQLDTAVITPAMLEEEEQLEAAGLERERKMLEKARMSWDRESTEIRYRRLQHLLEKSNIYSKFLLTKMEQQQLEEQKKKEKLERKKESLKVKKGKNSIDASEEKPVMRKKRGREDESYNISEVMSKEEILSVAKKNKKENEDENSSSTNLCVEDLQKNKDSNSIIKDRLSETVRQNTKFFFDPVRKCNGQPVPFQQPKHFTGGVMRWYQVEGMEWLRMLWENGINGILADEMGLGKTVQCIATIALMIQRGVPGPFLVCGPLSTLPNWMAEFKRFTPDIPTMLYHGTQEERQKLVRNIYKRKGTLQIHPVVITSFEIAMRDRNALQHCYWKYLIVDEGHRIKNMKCRLIRELKRFNADNKLLLTGTPLQNNLSELWSLLNFLLPDVFDDLKSFESWFDITSLSETAEDIIAKEREQNVLHMLHQILTPFLLRRLKSDVALEVPPKREVVVYAPLSKKQEIFYTAIVNRTIANMFGSSEKETIELSPTGRPKRRTRKSINYSKIDDFPNELEKLISQIQPEVDRERAVVEVNIPVESEVNLKLQNIMMLLRKCCNHPYLIEYPIDPVTQEFKIDEELVTNSGKFLILDRMLPELKKRGHKVLLFSQMTSMLDILMDYCHLRDFNFSRLDGSMSYSEREKNMHSFNTDPEVFIFLVSTRAGGLGINLTAADTVIIYDSDWNPQSDLQAQDRCHRIGQTKPVVVYRLVTANTIDQKIVERAAAKRKLEKLIIHKNHFKGGQSGLNLSKNFLDPKELMELLKSRDYEREIKGSREKVISDKDLELLLDRSDLIDQMNASGPIKEKMGIFKILENSEDSSPECLF [HELLS]	46.2 °C	48.2 °C	-0.204	0.252	1.77	3.02
MSGYSSDRDRGRDRGFGAPRFGGSRAGPLSGKKFGNPGEKLVKKKWNLDELPKFEKNFYQEHPDLARRTAQEVETYRRSKEITVRGHNCPKPVLNFYEANFPANVMDVIARQNFTEPTAIQAQGWPVALSGLDMVGVAQTGSGKTLSYLLPAIVHINHQPFLERGDGPICLVLAPTRELAQQVQQVAAEYCRACRLKSTCIYGGAPKGPQIRDLERGVEICIATPGRLIDFLECGKTNLRRTTYLVLDEADRMLDMGFEPQIRKIVDQIRPDRQTLMWSATWPKEVRQLAEDFLKDYIHINIGALELSANHNILQIVDVCHDVEKDEKLIRLMEEIMSEKENKTIVFVETKRRCDELTRKMRRDGWPAMGIHGDKSQQERDWVLNEFKHGKAPILIATDVASRGLDVEDVKFVINYDYPNSSEDYIHRIGRTARSTKTGTAYTFFTPNNIKQVSDLISVLREANQAINPKLLQLVEDRGSGRSRGRGGMKDDRRDRYSAGKRGGFNTFRDRENYDRGYSSLLKRDFGAKTQNGVYSAANYTNGSFGSNFVSAGIQTSFRTGNPTGTYQNGYDSTQQYGSNVPNMHNGMNQQAYAYPATAAAPMIGYPMPTGYSQ [DDX5]	47.2 °C	48.4 °C	-0.551	0.397	3.64	11.3
MLNMWKVRELVDKATNVVMNYSEIESKVREATNDDPWGPSGQLMGEIAKATFMYEQFPELMNMLWSRMLKDNKKNWRRVYKSLLLLAYLIRNGSERVVTSAREHIYDLRSLENYHFVDEHGKDQGINIRQKVKELVEFAQDDDRLREERKKAKKNKDKYVGVSSDSVGGFRYSERYDPEPKSKWDEEWDKNKSAFPFSDKLGELSDKIGSTIDDTISKFRRKDREDSPERCSDSDEEKKARRGRSPKGEFKDEEETVTTKHIHITQATETTTTRHKRTANPSKTIDLGAAAHYTGDKASPDQNASTHTPQSSVKTSVPSSKSSGDLVDLFDGTSQSTGGSADLFGGFADFGSAAASGSFPSQVTATSGNGDFGDWSAFNQAPSGPVASSGEFFGSASQPAVELVSGSQSALGPPPAASNSSDLFDLMGSSQATMTSSQSMNFSMMSTNTVGLGLPMSRSQNTDMVQKSVSKTLPSTWSDPSVNISLDNLLPGMQPSKPQQPSLNTMIQQQNMQQPMNVMTQSFGAVNLSSPSNMLPVRPQTNALIGGPMPMSMPNVMTGTMGMAPLGNTPMMNQSMMGMNMNIGMSAAGMGLTGTMGMGMPNIAMTSGTVQPKQDAFANFANFSK [CLINT1]	51.6 °C	51.9 °C	-0.186	-0.108	1.76	3.07
